Results taken from article PMC4231745.
pIC50, pKd: −log10 of the molar value.

Tests used:
[1] = molecular target: His-MS2-MBP (MS2 coat protein fused to maltose binding protein) (bacteriophage MS2) (UniProt P03612); assay: SPR; details: kon/koff fit, HBS-EP+; SPR: HBS-EP+ running buffer, Biacore X100, binding temperature not given; gel cleavage: 500 uM MgCl2, 150 mM NaCl, 1 mM DTT, 10 mM HEPES pH 7.4, 37 C
[2] = molecular target: His-MS2-MBP (MS2 coat protein fused to maltose binding protein) (bacteriophage MS2) (UniProt P03612); assay: ribozyme cleavage inhibition (gel); details: SPR: HBS-EP+ running buffer, Biacore X100, binding temperature not given; gel cleavage: 500 uM MgCl2, 150 mM NaCl, 1 mM DTT, 10 mM HEPES pH 7.4, 37 C

UniProt P03612, sequence (P03612 whole entry, the tested form may be a part): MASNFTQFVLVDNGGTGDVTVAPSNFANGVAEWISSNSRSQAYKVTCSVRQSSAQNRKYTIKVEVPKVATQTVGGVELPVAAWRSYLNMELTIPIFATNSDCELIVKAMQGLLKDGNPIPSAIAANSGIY

GCUGUCACCGGAAUCAAGGUCCGGUCUGAUGAGUCCGACCAUCAGGAGGACGAAACAGC [MS2-B3]
pKd [1]: 6.53

GCUGUCACCGGAUGUGGUUUCCGGUCUGAUGAGUCCGACCAUCAGGAGGACGAAACAGC [MS2-B2]
pKd [1]: 6.63

GCUGUCACCGGAUGUGCUUUCCGGUCUGAUGAGUCCGUGGUCCACCAUCAGGGGACUGGACUGAGGACGAAACAGC [MS2-A3]
pKd [1]: 6.60

GCUGUCACCGGAUUCGGGAUCCGGUCUGAUGAGUCCGACCAUCAGGAGGACGAAACAGC [MS2-B4]
pKd [1]: 6.65

GCUGUCACCGGAAUCAAGGUCCGGUCUGAUGAGUCCGUUGUCCACCAUCAGGGGACGGGACGGAGGACGAAACAGC [MS2-A2]
pIC50 [2]: 7.72 | pKd [1]: 8.22

GCUGUCACCGGAUGUGCUUUCCGGUCUGAUGAGUCCGUUGUCCAGGAUCACCGGACGGGACGGAGGACGAAACAGC [MS2-A1]
pIC50 [2]: 7.20 | pKd [1]: 7.61

GCUGUCACCGGAUGUGCUGCAGGAUCACCGCAUUUCCGGUCUGAUGAGUCCGUGAGGACGAAACAGC [MS2-B1]
pKd [1]: 6.20

GCUGUCACCGGAUGUGCUUUCCGGUCUGAUGAGUCCGUUGUCCUAGGAUCACCAGGAAGGGACGGAGGACGAAACAGC [MS2-A7]
pKd [1]: 6.55

GCUGUCACCGGAUGUGCUUUCCGGUCUGAUGAGUCCGUUGCGUAGGAUCACCACGUGGCGCGGAGGACGAAACAGC [MS2-A8]
pKd [1]: 7.30
